Assay results published in IntAct's records for PubMed 9294234.

B1: Receptor protein kinase CLAVATA1 (Arabidopsis thaliana (Mouse-ear cress)), Q9SYQ8 (parent)
chain: MAMRLLKTHLLFLHLYLFFSPCFAYTDMEVLLNLKSSMIGPKGHGLHDWIHSSSPDAHCSFSGVSCDDDARVISLNVSFTPLFGTISPEIGMLTHLVNLTLAANNFTGELPLEMKSLTSLKVLNISNNGNLTGTFPGEILKAMVDLEVLDTYNNNFNGKLPPEMSELKKLKYLSFGGNFFSGEIPESYGDIQSLEYLGLNGAGLSGKSPAFLSRLKNLREMYIGYYNSYTGGVPPEFGGLTKLEILDMASCTLTGEIPTSLSNLKHLHTLFLHINNLTGHIPPELSGLVSLKSLDLSINQLTGEIPQSFINLGNITLINLFRNNLYGQIPEAIGELPKLEVFEVWENNFTLQLPANLGRNGNLIKLDVSDNHLTGLIPKDLCRGEKLEMLILSNNFFFGPIPEELGKCKSLTKIRIVKNLLNGTVPAGLFNLPLVTIIELTDNFFSGELPVTMSGDVLDQIYLSNNWFSGEIPPAIGNFPNLQTLFLDRNRFRGNIPREIFELKHLSRINTSANNITGGIPDSISRCSTLISVDLSRNRINGEIPKGINNVKNLGTLNISGNQLTGSIPTGIGNMTSLTTLDLSFNDLSGRVPLGGQFLVFNETSFAGNTYLCLPHRVSCPTRPGQTSDHNHTALFSPSRIVITVIAAITGLILISVAIRQMNKKKNQKSLAWKLTAFQKLDFKSEDVLECLKEENIIGKGGAGIVYRGSMPNNVDVAIKRLVGRGTGRSDHGFTAEIQTLGRIRHRHIVRLLGYVANKDTNLLLYEYMPNGSLGELLHGSKGGHLQWETRHRVAVEAAKGLCYLHHDCSPLILHRDVKSNNILLDSDFEAHVADFGLAKFLVDGAASECMSSIAGSYGYIAPEYAYTLKVDEKSDVYSFGVVLLELIAGKKPVGEFGEGVDIVRWVRNTEEEITQPSDAAIVVAIVDPRLTGYPLTSVIHVFKIAMMCVEEEAAARPTMREVVHMLTNPPKSVANLIAF
partner: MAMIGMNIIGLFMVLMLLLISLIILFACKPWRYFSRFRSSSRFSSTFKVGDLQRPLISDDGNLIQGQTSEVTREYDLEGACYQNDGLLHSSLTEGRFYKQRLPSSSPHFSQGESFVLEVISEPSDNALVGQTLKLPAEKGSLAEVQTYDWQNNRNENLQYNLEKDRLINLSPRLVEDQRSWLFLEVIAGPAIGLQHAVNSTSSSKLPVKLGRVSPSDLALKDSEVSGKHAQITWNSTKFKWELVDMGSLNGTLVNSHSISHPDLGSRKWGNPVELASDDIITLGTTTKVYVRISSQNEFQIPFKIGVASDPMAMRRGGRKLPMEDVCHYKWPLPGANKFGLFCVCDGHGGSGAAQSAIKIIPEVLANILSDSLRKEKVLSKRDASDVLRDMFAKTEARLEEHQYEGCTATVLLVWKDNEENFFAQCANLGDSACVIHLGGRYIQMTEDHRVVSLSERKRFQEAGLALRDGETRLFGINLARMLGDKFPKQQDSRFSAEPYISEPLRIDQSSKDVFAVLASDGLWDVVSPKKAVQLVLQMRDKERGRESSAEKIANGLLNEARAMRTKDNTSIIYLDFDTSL

Variants of: B1
Conditions: with KAPP

effect of a mutation on the interaction | Variant
disrupting interaction | G856D
disrupting interaction | K720E

Variants of: B1
Conditions: with KAPP
Remark: another data set of the same source

effect of a mutation on the interaction | Variant
decreasing interaction | G856D
